Experimental data reported in the DeepSol protein solubility set.

Assay: soluble on expression in E. coli; label from the status in PepcDB or PDB records

For “MANSPKKPSDGTGVSASDTPKYQHTVPETKPAFNLSPGKASELSHSLPSPSQIKSTAHVSSTHNDAAGNTDDSVLPKNVSPTTNLRVESNGDTNNMFSSPAGLALPKKDDKKKNKGTSKADSKDGKASNSSGQNAQQQSDPNKMQDVLFSAGIDVREEEALLNSSINASKSQVQTNNVKIPNHLPFLHPEQVSNYMRKVGKEQNFNLTPTKNPEILDMMSSACENYMRDILTNAIVISRHRRKAVKINSGRRSEVSAALRAIALIQKKEEERRVKKRIALGLEKEDYENKIDSEETLHRASNVTAGLRAGSKKQYGWLTSSVNKPTSLGAKSSGKVASDITARGESGLKFREAREEPGIVMRDLLFALENRRNSVQTIISKGYAKIRD”, the “soluble on expression in E. coli” value was “not soluble”.
In the case of “MAHHHHHHMSTEPTPRVIVFDLDGTLWRPEMYELWGGGAPFMLSKDNSSIAIDKKGTEVRLIGQTRELLQMLSTTEEWRNTHLAISSTCDEPRWAMELLQLFRFRDKRGNDVPMLSLFGDLVEIYKANKKNQHRTILKKVKEHDPTVRGDFSDFIFFDNQQDNIGHVSSIGVTSIYCPNGMVGGVFERGLKEWRDKEKKRAL”, the “soluble on expression in E. coli” value was “soluble”.
With “MHHHHHHSSGVDLGTENLYFQSMAWVIDKYGKNEVLRFTQNMMMPIIHYPNEVIVKVHAASVNPIDVNMRSGYGATALNMKRDPLHVKIKGEEFPLTLGRDVSGVVMECGLDVKYFKPGDEVWAAVPPWKQGTLSEFVVVSGNEVSHKPKSLTHTQAASLPYVALTAWSAINKVGGLNDKNCTGKRVLILGASGGVGTFAIQVMKAWDAHVTAVCSQDASELVRKLGADDVIDYKSGSVEEQLKSLKPFDFILDNVGGSTETWAPDFLKKWSGATYVTLVTPFLLNMDRLGIADGMLQTGVTVGSKALKHFWKGVHYRWAFFMASGPCLDDIAELVDAGKIRPVIEQTFPFSKVPEAFLKVERGHARGKTVINVV” the “soluble on expression in E. coli” value was “soluble”.
With “MGSDKIHHHHHHMKVTLKTLTPLHIGSGEKYPPCNLVVLKEEENKKTAVRLITRKFLEVLRKHPEIKQNISENISKPLSFKEVENVEDGVFYEVSLYSDFSSGKKNPEIPEVVHHPDGSVYVPGSSLKGAVRLALTWHVLRNNRNLLEEFRRNVQKDLQNHKRAFYQTNEFLNGLFRFAPKEINTDYFRFLRVSDSQTLRTQLVVHDVGIFYVARPNTHPRTFPLEFVPINRDFVFDVRFVKEEYDYFLTHVRKRYGVELPGSIEEIFSIVNEFYSEVFKFERERFKKAKENFEKLDTSKIEERFQKIEKVLQSKKYVLIHIGYGGGLMANSLFILLDEETRKQVRNIIKYHKDDEAPLTRRYLVQSENNSYRVISPIGWCALWLEDSQST” the “soluble on expression in E. coli” value was “not soluble”.
For “MIDLNGQLHDVQATETLGQALAAARPVSAVVQLHGDLGAGKSTLARALLRALGVAGPIRSPTYTLVERYPLSTGDEAWHLDLYRIGHAGELDFLGLDEGSASLWLVEWPERGAGVLPPVDLDVELAVAGEGRSVRLLGRSAIGHAWMDRLSRQPQLQVLFAASREELEHHHHHH”, the “soluble on expression in E. coli” value was “not soluble”.
For “MVRVYIGRFPNRASDRDAEHFFCDYGKLPDAIMKNVFGVGCKDFQDQSDADDIICDEQTRILLVEKLKNAKEYPTINHD”, the “soluble on expression in E. coli” value was “not soluble”.
With “PVNGALDQYSARAANILAGNLDNHPLLEITALDFRMKANSDVLIAVTGAPLTLTVGGRPCSQWEPVSVRAGESVSIRGIHRGLRAYLAIHGSIEAGTLLGSAAPDTVVGFGLQLQEGTTLLSRRSVSPVRQPYFDLPLFRLGLERPSMGSDLSVDVTDGPDVAEFGESGELLFTSEYVVSGRSNHIGLRLGGELPERTSSDEVLSRGVPVGAVEVPSREELLVLHRGRGVTAGYPVLAVVTSTGLDVLAQARPGDKVRFRKTT” the “soluble on expression in E. coli” value was “not soluble”.
In the case of “SQELTLSPGPAKLTPTLDPTHRMELILSTSPAELTLDPACQPKLPLDSTCQPEMTFNPGPTELTLDPEHQPEETPAPSLAELTLEPVHRRPELLDACADLINDQWPRSRTSRLHSLGQSSDAFPLCLMLLSPHPTLEAAPVVVGHARLSRVLNQPQSLLVETVVVARALRGRGFGRRLMEGLEVFARARGFRKLHLTTHDQVHFYTHLGYQLGEPVQGLVFTSRRLPATLLNAFPTAPSPRPPRKAPNLTAQAAPRGPKGPPLPPPPPLPECLTISPPVPSGPPSKSLLETQYQNVRGRPIFWMEKDI”, the “soluble on expression in E. coli” value was “soluble”.
With “MSTEPLVVGAVAYTPNVVPIWEGIRGYFQDSESPDTQMDFVLYSNYARLVDSLIAGHIDIAWNTNLAYVRTVLQTGGRCTPLAQRDTDVDYTTVFVAHAGSDLHGAKDIAGKRLALGSADSAHAAILPLYYLRRAGIAESDLQVIRFDTDIGKHGDTGRSELDAVDAVLAGEADVAAIGSSTWAAMGAAELMGESLTEVWRTDGYCHCMFTALDTLPAERYQPWLDRLLAMSWDDSEHRKILELEGLRRWVPPHLDGYKPLFEAVQEQGIDPRW” the “soluble on expression in E. coli” value was “not soluble”.
For “MSRIIMLIPTGTSVGLTSVSLGVIRAMERKGVRLSVFKPIAQPRTGGDAPDQTTTIVRANSSTTTAAEPLKMSYVEGLLSSNQKDVLMEEIVANYHANTKDAEVVLVEGLVPTRKHQFAQSLNYEIAKTLNAEIVFVMSQGTDTPEQLKERIELTRNSFGGAKNTNITGVIVNKLNAPVDEQGRTRPDLSEIFDDSSKAKVNNVDPAKLQESSPLPVLGAVPWSFDLIATRAIDMARHLNATIINEGDINTRRVKSVTFCARSIPHMLEHFRAGSLLVTSADRPDVLVAACLAAMNGVEIGALLLTGGYEMDARISKLCERAFATGLPVFMVNTNTWQTSLSLQSFNLEVPVDDHERIEKVQEYVANYINADWIESLTATSERSRRLSPPAFRYQLTELARKAGKRIVLPEGDEPRTVKAAAICAERGIATCVLLGNPAEINRVAASQGVELGAGIEIVDPEVVRESYVGRLVELRKNKGMTETVAREQLEDNVVLGTLMLEQDEVDGLVSGAVHTTANTIRPPLQLIKTAPGSSLVSSVFFMLLPEQVYVYGDCAINPDPTAEQLAEIAIQSADSAAAFGIEPRVAMLSYSTGTSGAGSDVEKVREATRLAQEKRPDLMIDGPLQYDAAVMADVAKSKAPNSPVAGRATVFIFPDLNTGNTTYKAVQRSADLISIGPMLQGMRKPVNDLSRGALVDDIVYTIALTAIQSAQQQ”, the “soluble on expression in E. coli” value was “soluble”.
In the case of “SVGHLHLQAMGDTREQSRDGLLDSPDSGLPPSPSPSPPFYALSPGTLDTRTTTEAPAAPSLFQTPPALEMRSRLLPVFFGESIEVDPEPAHEIRCNSEITYASERYFRDKIFYAPVPTVTAYSETIVAAPNCTWRSYRSQLTLEPRPRALRFGSTAIIFPKLARSSFRTTLHCSLGQPRHWYSSSLQLRRCGDPTPGPSCPDVL”, the “soluble on expression in E. coli” value was “soluble”.
With “MAHHHHHHMGLVSSKHAGGGDGKPLSLDVISSRPKLEPHEVSLLQLTPHGVYATLAAHVYCAAAPETAMQVPLPDGWEVLLQCSSLHLDKEGYFAVAYVHRGSRHCIISERGTSEVLGLRAGIWMYFEQPTIQFFLAEQFSKAVRHKLKVMDKVCSGSWFVSYTGHSLGAVIAGCRAVMEGTLAVTFESPGARVFIEKTLDASSGTDEHLITYLRAPNPINTLKPQCGYVIMIPTQQVVLPSGTLFLAPSNPAAAEDDDEDERQSPRSGSGNRASRKPSKVPLSSTSSTNPSGCAGLVAASVTTAASTGTTAAATLAARSPTPPSVPASNSNNSGPGAAVASAPARWRIPSFRPQEYLRGYLFGGVGMGVPELQQYVGKVEPMIREMLEHTQQVHSIHSLRSHFQKSDEPGDEEVVLRWPSHLLQFMEFYNTTRALEDPENQDAGVKEAYLGLMRRLYYTEPRRRDCIPTKYLDPRSLLLVRMWWSMDAAQRKQWPLSLMDHKALNVIQIKDRYLCSYVMTAMQAKQYLMRLVARPEMRAMIDQWRRERNDGSTGAGSPQRSKL” the “soluble on expression in E. coli” value was “not soluble”.
With “MAGDPMQKVKSDILTHRGSHFDLGVQTAQWMQHTPLLKNREQEWKKRMPRFDIHIKETYDIFQTYAPQIWEEIRGMQEVLNLPTRQMILNFAHYRFTPLKNSGCTVYLGNDYMVRNYDYHPATYDGRYLLFQPNDGGLAQIGPTSRVTGRMDGMNEAGLAMGYNFMHRKHPGDGFVCYMIGRLVLQYCKDVPEAIKLLKEIPHRSSFSYIVMDKYLNHAIIEVTPRSIDVRYDHTCTNHFKLLTHENRNYTKESTERLDRLIKQTPAQLGKMDAFKLFNNPEFEIYSKLFKSWSGTIHTSMYEPQSLTAHITLGENKAPVEIDFQQWLNGESLNINELTGQIDTELTFATYLEHHHHHH” the “soluble on expression in E. coli” value was “not soluble”.
